Measurements as given in patent US20160145328A1 (published 2016).

Target: T1, protein A (UniProt P38507 37-477)
T1 construct: also called Protein A superantigen
Assay: Heat/Cool phage ELISA: phage-displayed scFv, 80 C 10 min then 4 C 10 min, captured on coated protein A; signal as % of untreated sample
Experimental: The aggregation-resistance of clones was analyzed by measuring retention of signal after heat incubation in a phage ELISA format (McCafferty et al., 1990; Jespers et al., 2004). Wells of a Nunc Maxisorp Immuno-plate were coated overnight with protein A at a concentration of about 5 μg/ml in phosphate-buffered saline (PBS). The plate was washed once with PBS and blocked with about 4% (w/v) milk powder diluted in PBS (MPBS). Single colonies were picked from agar plates and grown overnight in 2×TY medium (containing about 16 g/L tryptone; about 10 g/L yeast extract; about 5 g/L NaCl, pH 7.0) supplemented with about 15 μg/ml tetracycline shaking at about 30° C. Cells were removed by centrifugation and phages were biotinylated directly in the culture supernatant by adding biotin-PEO₄-N-hydroxysuccinimide (Pierce; about 50 μM final concentration). For heat selection, supernatant was first incubated at about 80° C. for about 10 min and then at about 4° C. for about 10 min. Supernatant was added to the blocked ELISA wells. After three washes with PBS, bound phage particles were detected using an Extravidin-HRP conjugate (Sigma) and 3,3′,5,5′-tetramethylbenzidine (TMB) substrate. Absorbance was calculated by subtracting measurements at 450 and 650 nm.
The DP47-CDR1 mutants described above were paired with a common single variable light chain (VL; SEQ ID NO: 3) via a linker (SEQ ID NO: 4) in a scFv format (see the Materials and Methods section for full experimental details). […] Correctly folded scFv were captured by protein A ELISA and the absorbance signal of the treated sample was calculated as a percentage of the untreated sample.

Binder	Retained binding to protein A [%]
scFv DP47 VH A33D - linker - common VL (scFv, name in Kabat numbering, also called A33D (scFv)) scFv: QVQLLESGGGLVQPGGSLRLSCAASGFTFSSYDMSWVRQAPGKGLEWVSAISGSGGSTYYADSVKGRFTISRDNSKNTLYLQMNSLRAEDTAVYYCAKSYGAFDYWGQGTLVTVSSGGGGSGGGGSGGGGSTDIQMTQSPSSLSASVGDRVTITCRASQSISSYLNWYQQKPGKAPKLLIYAYSDLQSGVPSGFSGSGSGTDFTLTISSLQPEDFATYYCQQLMTHPTTFGQGTKVEIKR	22
scFv DP47 VH S31D - linker - common VL (scFv, also called S31D (scFv)) scFv: QVQLLESGGGLVQPGGSLRLSCAASGFTFSDYAMSWVRQAPGKGLEWVSAISGSGGSTYYADSVKGRFTISRDNSKNTLYLQMNSLRAEDTAVYYCAKSYGAFDYWGQGTLVTVSSGGGGSGGGGSGGGGSTDIQMTQSPSSLSASVGDRVTITCRASQSISSYLNWYQQKPGKAPKLLIYAYSDLQSGVPSGFSGSGSGTDFTLTISSLQPEDFATYYCQQLMTHPTTFGQGTKVEIKR	29
scFv DP47 VH S35G - linker - common VL (scFv, name in Kabat numbering, also called S35G (scFv)) scFv: QVQLLESGGGLVQPGGSLRLSCAASGFTFSSYAMGWVRQAPGKGLEWVSAISGSGGSTYYADSVKGRFTISRDNSKNTLYLQMNSLRAEDTAVYYCAKSYGAFDYWGQGTLVTVSSGGGGSGGGGSGGGGSTDIQMTQSPSSLSASVGDRVTITCRASQSISSYLNWYQQKPGKAPKLLIYAYSDLQSGVPSGFSGSGSGTDFTLTISSLQPEDFATYYCQQLMTHPTTFGQGTKVEIKR	5
scFv DP47 VH T28R - linker - common VL (scFv, name in Kabat numbering, also called T28R (scFv)) scFv: QVQLLESGGGLVQPGGSLRLSCAASGFRFSSYAMSWVRQAPGKGLEWVSAISGSGGSTYYADSVKGRFTISRDNSKNTLYLQMNSLRAEDTAVYYCAKSYGAFDYWGQGTLVTVSSGGGGSGGGGSGGGGSTDIQMTQSPSSLSASVGDRVTITCRASQSISSYLNWYQQKPGKAPKLLIYAYSDLQSGVPSGFSGSGSGTDFTLTISSLQPEDFATYYCQQLMTHPTTFGQGTKVEIKR	4
scFv DP47 VH Y32E - linker - common VL (scFv, also called Y32E (scFv)) scFv: QVQLLESGGGLVQPGGSLRLSCAASGFTFSSEAMSWVRQAPGKGLEWVSAISGSGGSTYYADSVKGRFTISRDNSKNTLYLQMNSLRAEDTAVYYCAKSYGAFDYWGQGTLVTVSSGGGGSGGGGSGGGGSTDIQMTQSPSSLSASVGDRVTITCRASQSISSYLNWYQQKPGKAPKLLIYAYSDLQSGVPSGFSGSGSGTDFTLTISSLQPEDFATYYCQQLMTHPTTFGQGTKVEIKR	27
